Source: PMC3176292, “Mutations in Protein-Binding Hot-Spots on the Hub Protein Smad3 Differentially Affect Its Protein Interactions and Smad3-Regulated Gene Expression” (PLoS ONE, 2011)

T1: Ski Smad-binding domain (amino acids 2–56) on the 3xFlag-thioredoxin scaffold (UniProt P12755 2-56)
T1 construct: Ski, amino acids 2–56; cloned into the unique RsrII site of pCI-3xFLAG-Trx; also called Ski aa2–56; TrxSki; source: HEK-293, transfected, in lysate
T1 sequence (looked up): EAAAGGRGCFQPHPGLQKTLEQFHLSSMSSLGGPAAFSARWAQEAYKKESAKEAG

T2: Flag-Smad4, full length (UniProt Q13485 1-552)
T2 construct: Smad4; plasmid pCMV5-Flag-Smad4 (from J. Massagué); also called Smad4 FL; source: HEK-293, transfected, in lysate
T2 sequence (looked up): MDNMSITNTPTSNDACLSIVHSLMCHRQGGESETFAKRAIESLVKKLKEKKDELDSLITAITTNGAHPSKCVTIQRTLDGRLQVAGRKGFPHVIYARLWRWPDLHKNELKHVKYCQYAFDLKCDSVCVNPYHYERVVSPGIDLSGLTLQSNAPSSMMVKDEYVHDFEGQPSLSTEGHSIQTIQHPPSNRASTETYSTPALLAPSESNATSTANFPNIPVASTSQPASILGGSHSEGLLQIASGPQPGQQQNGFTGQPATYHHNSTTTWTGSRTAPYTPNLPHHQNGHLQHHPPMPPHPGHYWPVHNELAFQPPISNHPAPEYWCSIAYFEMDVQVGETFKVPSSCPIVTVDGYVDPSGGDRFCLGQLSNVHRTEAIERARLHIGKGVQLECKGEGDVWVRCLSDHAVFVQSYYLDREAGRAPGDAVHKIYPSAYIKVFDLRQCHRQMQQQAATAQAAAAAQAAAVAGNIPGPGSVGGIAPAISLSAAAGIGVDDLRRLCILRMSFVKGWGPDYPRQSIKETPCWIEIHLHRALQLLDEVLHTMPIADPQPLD

T3: SARA Smad-binding domain (amino acids 665–721) on the 3xFlag-thioredoxin scaffold (UniProt O95405 767-823)
T3 construct: SARA, amino acids 665–721; cloned into the unique RsrII site of pCI-3xFLAG-Trx; also called SARA aa665–721; TrxSARA; source: HEK-293, transfected, in lysate
T3 sequence (looked up): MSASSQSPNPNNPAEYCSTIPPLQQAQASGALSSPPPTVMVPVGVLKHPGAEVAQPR


Assays:
Assay in all cases: co-IP; LUMIER: Renilla luciferase-Smad3 and Flag-tagged partner co-expressed with constitutively active Alk5 in HEK-293; Flag protein captured from cleared lysate (TNE: 10 mM Tris-HCl pH 7.8, 150 mM NaCl, 1 mM EDTA, 1% Igepal CA-630) on anti-Flag 96-well plates, 2 h at 4 °C; co-precipitated Renilla luciferase activity, TrxGA background subtracted, percent of wild-type Smad3
Conditions in all cases: partners not purified
[1] = molecular target: T1, Ski Smad-binding domain (amino acids …)
Flag-Smad4, full length = molecular target: T2, Flag-Smad4, full length
[2] = molecular target: T4, Smurf2 Smad-binding domain (amino acids 252–330) on the Flag-thioredoxin scaffold (UniProt Q9HAU4 252-330)
T4 construct: Smurf2, amino acids 252–330; also called Smurf2 aa252–330; TrxSmurf2; source: HEK-293, transfected, in lysate

[3] = molecular target: T3, SARA Smad-binding domain (amino acids …)
[4] = molecular target: T4, Smurf2 Smad-binding domain (amino acids …); remark: listed apart in the source
[5] = molecular target: T3, SARA Smad-binding domain (amino acids …); remark: listed apart in the source

T4 sequence (Q9HAU4 252-330): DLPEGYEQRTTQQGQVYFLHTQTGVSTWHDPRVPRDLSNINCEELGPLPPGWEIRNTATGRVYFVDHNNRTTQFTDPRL

Binder	percent binding relative to wild-type Smad3 [1]	percent binding relative to wild-type Smad3 (Flag-Smad4, full length)	percent binding relative to wild-type Smad3 [2]	percent binding relative to wild-type Smad3 [3]	percent binding relative to wild-type Smad3 [4]	percent binding relative to wild-type Smad3 [5]
Renilla luciferase-Smad3 D408H (natural protein, UniProt P84022 1-425, looked up, Smad3; source: HEK-293, transfected together with constitutively active Alk5, in lysate) MSSILPFTPPIVKRLLGWKKGEQNGQEEKWCEKAVKSLVKKLKKTGQLDELEKAITTQNVNTKCITIPRSLDGRLQVSHRKGLPHVIYCRLWRWPDLHSHHELRAMELCEFAFNMKKDEVCVNPYHYQRVETPVLPPVLVPRHTEIPAEFPPLDDYSHSIPENTNFPAGIEPQSNIPETPPPGYLSEDGETSDHQMNHSMDAGSPNLSPNPMSPAHNNLDLQPVTYCEPAFWCSISYYELNQRVGETFHASQPSMTVDGFTDPSNSERFCLGLLSNVNRNAAVELTRRHIGRGVRLYYIGGEVFAECLSDSAIFVQSPNCNQRYGWHPATVCKIPPGCNLKIFNNQEFAALLAQSVNQGFEAVYQLTRMCTIRMSFVKGWGAEYRRQTVTSTPCWIELHLNGPLQWLHKVLTQMGSPSIRCSSVS	3%	3%	23%	125%	–	–
Renilla luciferase-Smad3 R243A (natural protein, UniProt P84022 1-425, looked up, Smad3; source: HEK-293, transfected together with constitutively active Alk5, in lysate) MSSILPFTPPIVKRLLGWKKGEQNGQEEKWCEKAVKSLVKKLKKTGQLDELEKAITTQNVNTKCITIPRSLDGRLQVSHRKGLPHVIYCRLWRWPDLHSHHELRAMELCEFAFNMKKDEVCVNPYHYQRVETPVLPPVLVPRHTEIPAEFPPLDDYSHSIPENTNFPAGIEPQSNIPETPPPGYLSEDGETSDHQMNHSMDAGSPNLSPNPMSPAHNNLDLQPVTYCEPAFWCSISYYELNQAVGETFHASQPSMTVDGFTDPSNSERFCLGLLSNVNRNAAVELTRRHIGRGVRLYYIGGEVFAECLSDSAIFVQSPNCNQRYGWHPATVCKIPPGCNLKIFNNQEFAALLAQSVNQGFEAVYQLTRMCTIRMSFVKGWGAEYRRQTVTSTPCWIELHLNGPLQWLDKVLTQMGSPSIRCSSVS	–	–	–	–	19%	72%
Renilla luciferase-Smad3 R268A (natural protein, UniProt P84022 1-425, looked up, Smad3; source: HEK-293, transfected together with constitutively active Alk5, in lysate) MSSILPFTPPIVKRLLGWKKGEQNGQEEKWCEKAVKSLVKKLKKTGQLDELEKAITTQNVNTKCITIPRSLDGRLQVSHRKGLPHVIYCRLWRWPDLHSHHELRAMELCEFAFNMKKDEVCVNPYHYQRVETPVLPPVLVPRHTEIPAEFPPLDDYSHSIPENTNFPAGIEPQSNIPETPPPGYLSEDGETSDHQMNHSMDAGSPNLSPNPMSPAHNNLDLQPVTYCEPAFWCSISYYELNQRVGETFHASQPSMTVDGFTDPSNSEAFCLGLLSNVNRNAAVELTRRHIGRGVRLYYIGGEVFAECLSDSAIFVQSPNCNQRYGWHPATVCKIPPGCNLKIFNNQEFAALLAQSVNQGFEAVYQLTRMCTIRMSFVKGWGAEYRRQTVTSTPCWIELHLNGPLQWLDKVLTQMGSPSIRCSSVS	–	–	–	–	21%	116%
Renilla luciferase-Smad3 R292A (natural protein, UniProt P84022 1-425, looked up, Smad3; source: HEK-293, transfected together with constitutively active Alk5, in lysate) MSSILPFTPPIVKRLLGWKKGEQNGQEEKWCEKAVKSLVKKLKKTGQLDELEKAITTQNVNTKCITIPRSLDGRLQVSHRKGLPHVIYCRLWRWPDLHSHHELRAMELCEFAFNMKKDEVCVNPYHYQRVETPVLPPVLVPRHTEIPAEFPPLDDYSHSIPENTNFPAGIEPQSNIPETPPPGYLSEDGETSDHQMNHSMDAGSPNLSPNPMSPAHNNLDLQPVTYCEPAFWCSISYYELNQRVGETFHASQPSMTVDGFTDPSNSERFCLGLLSNVNRNAAVELTRRHIGAGVRLYYIGGEVFAECLSDSAIFVQSPNCNQRYGWHPATVCKIPPGCNLKIFNNQEFAALLAQSVNQGFEAVYQLTRMCTIRMSFVKGWGAEYRRQTVTSTPCWIELHLNGPLQWLDKVLTQMGSPSIRCSSVS	–	–	–	–	31%	78%
Renilla luciferase-Smad3 Y238A (natural protein, UniProt P84022 1-425, looked up, Smad3; source: HEK-293, transfected together with constitutively active Alk5, in lysate) MSSILPFTPPIVKRLLGWKKGEQNGQEEKWCEKAVKSLVKKLKKTGQLDELEKAITTQNVNTKCITIPRSLDGRLQVSHRKGLPHVIYCRLWRWPDLHSHHELRAMELCEFAFNMKKDEVCVNPYHYQRVETPVLPPVLVPRHTEIPAEFPPLDDYSHSIPENTNFPAGIEPQSNIPETPPPGYLSEDGETSDHQMNHSMDAGSPNLSPNPMSPAHNNLDLQPVTYCEPAFWCSISYAELNQRVGETFHASQPSMTVDGFTDPSNSERFCLGLLSNVNRNAAVELTRRHIGRGVRLYYIGGEVFAECLSDSAIFVQSPNCNQRYGWHPATVCKIPPGCNLKIFNNQEFAALLAQSVNQGFEAVYQLTRMCTIRMSFVKGWGAEYRRQTVTSTPCWIELHLNGPLQWLDKVLTQMGSPSIRCSSVS	–	–	–	–	28%	74%
Renilla luciferase-Smad3 Y297A (natural protein, UniProt P84022 1-425, looked up, Smad3; source: HEK-293, transfected together with constitutively active Alk5, in lysate) MSSILPFTPPIVKRLLGWKKGEQNGQEEKWCEKAVKSLVKKLKKTGQLDELEKAITTQNVNTKCITIPRSLDGRLQVSHRKGLPHVIYCRLWRWPDLHSHHELRAMELCEFAFNMKKDEVCVNPYHYQRVETPVLPPVLVPRHTEIPAEFPPLDDYSHSIPENTNFPAGIEPQSNIPETPPPGYLSEDGETSDHQMNHSMDAGSPNLSPNPMSPAHNNLDLQPVTYCEPAFWCSISYYELNQRVGETFHASQPSMTVDGFTDPSNSERFCLGLLSNVNRNAAVELTRRHIGRGVRLAYIGGEVFAECLSDSAIFVQSPNCNQRYGWHPATVCKIPPGCNLKIFNNQEFAALLAQSVNQGFEAVYQLTRMCTIRMSFVKGWGAEYRRQTVTSTPCWIELHLNGPLQWLDKVLTQMGSPSIRCSSVS	1%	181%	119%	8%	–	–
Renilla luciferase-Smad3 Y384A (natural protein, UniProt P84022 1-425, looked up, Smad3; source: HEK-293, transfected together with constitutively active Alk5, in lysate) MSSILPFTPPIVKRLLGWKKGEQNGQEEKWCEKAVKSLVKKLKKTGQLDELEKAITTQNVNTKCITIPRSLDGRLQVSHRKGLPHVIYCRLWRWPDLHSHHELRAMELCEFAFNMKKDEVCVNPYHYQRVETPVLPPVLVPRHTEIPAEFPPLDDYSHSIPENTNFPAGIEPQSNIPETPPPGYLSEDGETSDHQMNHSMDAGSPNLSPNPMSPAHNNLDLQPVTYCEPAFWCSISYYELNQRVGETFHASQPSMTVDGFTDPSNSERFCLGLLSNVNRNAAVELTRRHIGRGVRLYYIGGEVFAECLSDSAIFVQSPNCNQRYGWHPATVCKIPPGCNLKIFNNQEFAALLAQSVNQGFEAVYQLTRMCTIRMSFVKGWGAEARRQTVTSTPCWIELHLNGPLQWLDKVLTQMGSPSIRCSSVS	–	–	–	–	24%	119%
